Paper PMC4663267, “A Novel C-Terminal Domain of RecJ is Critical for Interaction with HerA in Deinococcus radiodurans”

What was measured:
[1] = biological target: T1, DrHerA (Deinococcus radiodurans, UniProt Q9RW32 1-618); experiment: EMSA; HerA alone; EMSA: 100 nM DNA, 80 mM NaCl, 20 mM Tris-HCl pH 7.5, 1 mM DTT, 30 C, 10 min, 5% TBE native PAGE; settings: protein: recombinant; tags: N-terminal His6; chain copies: 6; label: 5' FAM; single strand
T1 sequence: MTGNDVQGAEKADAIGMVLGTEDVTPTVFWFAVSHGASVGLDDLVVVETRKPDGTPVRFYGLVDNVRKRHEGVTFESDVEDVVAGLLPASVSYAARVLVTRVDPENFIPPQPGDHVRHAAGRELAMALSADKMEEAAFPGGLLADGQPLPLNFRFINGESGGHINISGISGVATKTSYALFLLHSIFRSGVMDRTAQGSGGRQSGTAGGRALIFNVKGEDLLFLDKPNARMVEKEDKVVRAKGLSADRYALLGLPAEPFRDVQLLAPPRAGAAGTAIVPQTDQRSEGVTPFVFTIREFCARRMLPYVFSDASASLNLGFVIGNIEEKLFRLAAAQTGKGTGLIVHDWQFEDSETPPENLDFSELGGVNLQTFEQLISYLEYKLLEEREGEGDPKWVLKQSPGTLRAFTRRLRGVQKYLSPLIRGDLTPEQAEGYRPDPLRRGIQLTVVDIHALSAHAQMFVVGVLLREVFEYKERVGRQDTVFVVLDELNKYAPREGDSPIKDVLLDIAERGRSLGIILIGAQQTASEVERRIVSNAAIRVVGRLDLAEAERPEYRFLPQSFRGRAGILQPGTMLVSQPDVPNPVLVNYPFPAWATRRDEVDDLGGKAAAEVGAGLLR

[2] = biological target: T2, DrRecJ (Deinococcus radiodurans, UniProt D0EM60 1-705); experiment: EMSA; DNA:RecJ 1:2 to 1:16; no metal added; EMSA: 100 nM DNA, 80 mM NaCl, 20 mM Tris-HCl pH 7.5, 1 mM DTT, 30 C, 10 min, 5% TBE native PAGE; settings: protein: recombinant; tags: HMT (His6-MBP) tag removed by TEV; label: 5' FAM; single strand
T2 sequence: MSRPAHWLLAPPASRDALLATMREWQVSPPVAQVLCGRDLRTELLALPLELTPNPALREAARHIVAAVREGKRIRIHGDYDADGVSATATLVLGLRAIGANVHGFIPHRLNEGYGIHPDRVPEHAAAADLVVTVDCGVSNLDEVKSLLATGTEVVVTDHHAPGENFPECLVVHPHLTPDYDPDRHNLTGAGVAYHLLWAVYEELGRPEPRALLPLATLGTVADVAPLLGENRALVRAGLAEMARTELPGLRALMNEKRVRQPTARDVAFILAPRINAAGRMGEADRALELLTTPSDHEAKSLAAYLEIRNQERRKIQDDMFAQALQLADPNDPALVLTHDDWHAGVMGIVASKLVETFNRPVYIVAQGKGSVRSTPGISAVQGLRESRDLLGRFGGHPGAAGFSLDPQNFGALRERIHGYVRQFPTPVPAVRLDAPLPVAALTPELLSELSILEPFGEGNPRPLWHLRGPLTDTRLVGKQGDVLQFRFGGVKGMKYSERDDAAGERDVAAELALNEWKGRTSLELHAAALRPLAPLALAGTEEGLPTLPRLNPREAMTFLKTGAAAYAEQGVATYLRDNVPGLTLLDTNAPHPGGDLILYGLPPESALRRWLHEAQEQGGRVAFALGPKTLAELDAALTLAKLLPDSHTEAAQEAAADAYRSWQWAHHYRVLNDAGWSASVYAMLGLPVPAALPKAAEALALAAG

B1: O1 (10 nt ssDNA) (ssDNA)
DNA: AAAAAAAAAA
binding result [1]: no binding | binding result [2]: binds
